Source: the supplement of paper PMC11136658

Tested on: peptide library, one residue held at a place counted from the Y acceptor
Experiment: relative phosphorylation of the sub-library (ratio to the mean residue at this position); higher = residue favoured
Outline: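 Purified recombinant kinases were incubated for 90 min in 384-well plates with biotinylated Tyr-centred peptide library mixtures, each fixing one residue at one position from −5 to +5, plus 50 μM ATP with γ-32P-ATP. Peptides were captured on streptavidin membranes, rinsed and quantified by phosphorimaging and ImageQuant. Intensities were normalized per position by the sum of the 18 (or 16, Ser/Thr-free library) randomized residues and multiplied by that number. Values give phosphorylation relative to the mean randomized residue.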

Chain of INSR, construct: aa1110-end, human (P06213 1110-1382, looked up): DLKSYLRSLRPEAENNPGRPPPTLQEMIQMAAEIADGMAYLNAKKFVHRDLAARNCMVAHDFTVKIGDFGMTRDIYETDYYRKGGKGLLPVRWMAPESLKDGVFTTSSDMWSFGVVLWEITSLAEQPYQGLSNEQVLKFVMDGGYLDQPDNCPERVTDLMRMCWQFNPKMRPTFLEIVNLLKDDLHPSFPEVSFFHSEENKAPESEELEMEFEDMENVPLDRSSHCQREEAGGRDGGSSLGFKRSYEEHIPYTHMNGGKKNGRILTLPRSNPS
Chain of IGF1R, construct: aa960-end, human (P08069 960-1367, looked up): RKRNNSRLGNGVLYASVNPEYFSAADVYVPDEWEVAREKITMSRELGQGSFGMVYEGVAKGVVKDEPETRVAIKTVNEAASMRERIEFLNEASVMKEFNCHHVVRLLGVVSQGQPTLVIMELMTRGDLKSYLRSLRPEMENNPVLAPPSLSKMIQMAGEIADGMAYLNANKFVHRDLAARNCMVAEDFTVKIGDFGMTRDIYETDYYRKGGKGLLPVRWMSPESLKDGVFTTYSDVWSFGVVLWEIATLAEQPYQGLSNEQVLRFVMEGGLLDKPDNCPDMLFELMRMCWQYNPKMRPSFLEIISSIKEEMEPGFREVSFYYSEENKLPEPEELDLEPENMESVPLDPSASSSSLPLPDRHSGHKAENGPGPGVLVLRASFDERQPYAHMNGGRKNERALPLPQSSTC
Chain of IRR, construct: aa945-end, human (P14616 945-1297, looked up): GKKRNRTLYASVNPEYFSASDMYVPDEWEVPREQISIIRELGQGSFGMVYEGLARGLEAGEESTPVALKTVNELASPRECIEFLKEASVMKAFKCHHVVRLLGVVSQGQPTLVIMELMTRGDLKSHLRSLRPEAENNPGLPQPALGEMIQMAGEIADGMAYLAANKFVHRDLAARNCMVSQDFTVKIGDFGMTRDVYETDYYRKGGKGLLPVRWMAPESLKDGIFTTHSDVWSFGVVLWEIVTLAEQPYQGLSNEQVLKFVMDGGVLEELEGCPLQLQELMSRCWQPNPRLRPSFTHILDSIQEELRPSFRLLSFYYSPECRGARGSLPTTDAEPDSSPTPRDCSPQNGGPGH

IGF1R, construct: aa960-end, human (from UniProt P08069)
relative phosphorylation
Details | at +1 | at +2 | at +3 | at +4 | at +5 | at -1 | at -2 | at -3 | at -4 | at -5
A fixed | 1.7 | 0.629 | 0.386 | 0.818 | 0.794 | 1.07 | 1.11 | 0.892 | 1.01 | 0.847
D fixed | 0.473 | 0.626 | 0.286 | 1.12 | 0.708 | 3.28 | 1.46 | 1.52 | 1.41 | 1.33
E fixed | 0.838 | 1.42 | 0.255 | 1.68 | 0.671 | 1.61 | 1.71 | 1.77 | 1.86 | 1.05
F fixed | 1.68 | 1.48 | 2 | 1.45 | 2.54 | 0.717 | 0.697 | 1.1 | 1.05 | 1.01
G fixed | 0.585 | 0.273 | 0.367 | 0.844 | 0.83 | 0.547 | 1.18 | 0.991 | 1.03 | 1.06
H fixed | 1.42 | 0.838 | 1.57 | 1.19 | 1.03 | 0.864 | 0.937 | 1.05 | 0.915 | 0.963
I fixed | 1.28 | 1.15 | 1.94 | 0.843 | 0.91 | 1.2 | 0.736 | 0.654 | 0.819 | 0.997
K fixed | 0.216 | 0.408 | 0.307 | 0.679 | 0.648 | 0.21 | 0.8 | 0.711 | 0.863 | 0.983
L fixed | 1.08 | 1.59 | 1.35 | 0.694 | 1.02 | 0.964 | 0.839 | 0.798 | 0.886 | 0.916
M fixed | 2.42 | 1.67 | 1.43 | 1.01 | 0.951 | 0.744 | 0.651 | 0.853 | 0.875 | 0.954
N fixed | 0.319 | 0.74 | 0.288 | 0.787 | 0.764 | 1.83 | 1.34 | 1.4 | 0.971 | 1.12
P fixed | 0.311 | 0.589 | 0.291 | 0.796 | 1.62 | 1.11 | 1.1 | 0.914 | 0.98 | 1.06
Q fixed | 0.646 | 0.733 | 0.353 | 1.12 | 0.674 | 0.663 | 1.16 | 0.922 | 1.14 | 1.09
R fixed | 0.178 | 0.588 | 0.433 | 0.799 | 0.914 | 0.239 | 0.893 | 0.899 | 0.977 | 1.12
S fixed | 0.879 | 0.659 | 0.423 | 0.883 | 0.841 | 0.75 | 1.16 | 1.01 | 0.82 | 0.858
T fixed | 0.755 | 0.661 | 0.525 | 0.86 | 0.704 | 0.778 | 0.86 | 0.973 | 0.645 | 0.864
V fixed | 1.51 | 1.13 | 1.21 | 0.873 | 0.695 | 0.966 | 0.739 | 0.652 | 0.787 | 0.788
W fixed | 1.71 | 2.83 | 4.6 | 1.55 | 1.68 | 0.451 | 0.63 | 0.901 | 0.967 | 0.983
pThr fixed | 1.78 | 0.865 | 0.247 | 0.783 | 0.704 | 2.1 | 1.17 | 1.37 | 1.18 | 1.1
pTyr fixed | 1.8 | 2.89 | 0.461 | 1.93 | 0.573 | 6.45 | 2.12 | 1.56 | 1.65 | 1.48

INSR, construct: aa1110-end, human (from UniProt P06213)
relative phosphorylation
Details | at +1 | at +2 | at +3 | at +4 | at +5 | at -1 | at -2 | at -3 | at -4 | at -5
A fixed | 1.55 | 0.678 | 0.593 | 0.95 | 0.917 | 1.09 | 1.09 | 0.925 | 1.09 | 1.07
D fixed | 0.383 | 0.584 | 0.264 | 1.04 | 0.792 | 2.65 | 1.14 | 1.34 | 1.3 | 1.14
E fixed | 0.627 | 1.31 | 0.234 | 0.976 | 0.731 | 1.14 | 1.26 | 1.48 | 1.31 | 0.983
F fixed | 1.41 | 1.13 | 1.62 | 1.02 | 1.56 | 0.696 | 0.621 | 0.912 | 1.03 | 0.834
G fixed | 0.731 | 0.419 | 0.545 | 0.809 | 0.858 | 0.554 | 1.24 | 0.872 | 1.36 | 1.23
H fixed | 1.67 | 0.915 | 1.47 | 1.16 | 1.17 | 1.16 | 0.95 | 1.11 | 0.965 | 0.975
I fixed | 1.21 | 1.16 | 1.92 | 0.902 | 0.978 | 1.04 | 0.87 | 0.616 | 0.817 | 0.935
K fixed | 0.275 | 0.602 | 0.475 | 0.951 | 0.919 | 0.27 | 0.8 | 0.861 | 0.835 | 1.11
L fixed | 0.986 | 1.35 | 1.61 | 0.841 | 1.14 | 0.981 | 0.957 | 0.867 | 0.879 | 0.913
M fixed | 2.41 | 1.53 | 1.74 | 1.16 | 1.08 | 0.789 | 0.743 | 0.929 | 0.804 | 0.976
N fixed | 0.312 | 0.941 | 0.347 | 0.762 | 0.813 | 2.16 | 1.25 | 1.51 | 0.939 | 1.22
P fixed | 0.317 | 0.706 | 0.421 | 0.704 | 1.05 | 1.04 | 1.29 | 0.905 | 1.17 | 0.956
Q fixed | 0.805 | 0.811 | 0.46 | 1.19 | 0.806 | 0.747 | 1.22 | 1.06 | 1.22 | 1.1
R fixed | 0.227 | 0.868 | 0.706 | 0.953 | 1.02 | 0.266 | 0.831 | 0.913 | 0.913 | 1.13
S fixed | 0.926 | 0.804 | 0.534 | 1.07 | 1.04 | 0.901 | 1.18 | 1.09 | 0.814 | 0.896
T fixed | 0.946 | 0.781 | 0.673 | 0.843 | 0.84 | 0.97 | 1.08 | 0.941 | 0.731 | 0.828
V fixed | 1.45 | 1.08 | 1.13 | 0.968 | 0.937 | 0.989 | 0.796 | 0.698 | 0.746 | 0.798
W fixed | 1.76 | 2.34 | 3.26 | 1.69 | 1.35 | 0.558 | 0.684 | 0.978 | 1.08 | 0.902
pThr fixed | 1.28 | 0.717 | 0.229 | 0.55 | 0.612 | 1.28 | 1.01 | 1.11 | 1.09 | 0.769
pTyr fixed | 1.36 | 2.45 | 0.487 | 1.48 | 0.585 | 4.11 | 1.68 | 1.51 | 1.28 | 0.991

IRR, construct: aa945-end, human (from UniProt P14616)
relative phosphorylation
Details | at +1 | at +2 | at +3 | at +4 | at +5 | at -1 | at -2 | at -3 | at -4 | at -5
A fixed | 1.2 | 0.697 | 0.453 | 0.79 | 0.702 | 0.948 | 1.06 | 0.957 | 0.997 | 1.03
D fixed | 0.718 | 0.923 | 0.342 | 1.35 | 0.583 | 2.42 | 1.56 | 1.39 | 1.41 | 1.13
E fixed | 1.07 | 1.49 | 0.322 | 1.26 | 0.575 | 1.66 | 1.53 | 1.53 | 1.28 | 1.03
F fixed | 1.4 | 1.19 | 1.51 | 1.06 | 2.09 | 0.666 | 0.685 | 0.903 | 0.854 | 0.904
G fixed | 0.637 | 0.368 | 0.424 | 0.931 | 0.838 | 0.608 | 1.14 | 0.972 | 1.08 | 0.998
H fixed | 1.85 | 1.07 | 1.37 | 1.24 | 1.21 | 1.08 | 0.901 | 1.13 | 1.07 | 1.09
I fixed | 0.849 | 0.881 | 1.73 | 0.828 | 1.03 | 0.842 | 0.63 | 0.618 | 0.772 | 0.87
K fixed | 0.399 | 0.686 | 0.433 | 0.906 | 0.693 | 0.35 | 0.977 | 0.864 | 1.05 | 1.28
L fixed | 1.19 | 1.32 | 1.6 | 0.807 | 0.985 | 0.916 | 0.705 | 0.717 | 0.742 | 0.825
M fixed | 2.18 | 1.44 | 2.06 | 0.975 | 1.06 | 0.75 | 0.803 | 0.779 | 0.853 | 0.84
N fixed | 0.618 | 0.911 | 0.484 | 1.14 | 0.844 | 2.07 | 1.37 | 1.45 | 1.14 | 1.13
P fixed | 0.423 | 0.796 | 0.374 | 0.892 | 1.37 | 1.07 | 1.24 | 0.834 | 0.957 | 0.978
Q fixed | 0.998 | 1.02 | 0.546 | 1.04 | 0.867 | 0.911 | 1.18 | 1.24 | 1.19 | 1.12
R fixed | 0.353 | 0.796 | 0.665 | 0.918 | 1.06 | 0.386 | 0.992 | 1.16 | 1.05 | 1.19
S fixed | 0.835 | 0.771 | 0.509 | 0.977 | 0.705 | 0.856 | 1.06 | 1.05 | 0.847 | 0.88
T fixed | 0.867 | 0.801 | 0.741 | 1.07 | 0.781 | 0.945 | 1.05 | 0.996 | 0.876 | 0.803
V fixed | 0.906 | 0.945 | 1.43 | 0.85 | 0.723 | 0.757 | 0.651 | 0.647 | 0.776 | 0.806
W fixed | 1.21 | 1.47 | 2.26 | 1.01 | 1.35 | 0.576 | 0.576 | 0.797 | 0.781 | 0.766
pThr fixed | 1.57 | 1.06 | 0.323 | 0.922 | 0.584 | 1.66 | 1.23 | 1.27 | 1.2 | 1.07
pTyr fixed | 1.06 | 1.64 | 0.393 | 1.12 | 0.513 | 2.83 | 1.35 | 1.26 | 0.928 | 1.02
